Measured values as given in patent US20260240820A1, “METHOD FOR CONTROLLING MEMBRANE POTENTIAL-DEPENDENT ION CHANNEL THROUGH TYPE I TASTE RECEPTORS (T1RS)” (ION CHAT RESEARCH CORPORATE, priority 2022, published 2026).
“Also recorded” adds a separate entry of the source. Where two headings read alike, the source gives them in different places.

Test system: Nav1.6
Assay: Patch-clamp recording of VGSC current in HEK (Nav1.6) cells
Type: cell-based, human

B1: Thaumatin: sweet-tasting protein binding to the CRD of T1R3 (protein)
chain: ATFEIVNRCSYTVWAAASKGDAALDAGGRQLNSGESWTINVEPGTNGGKIWARTDCYFDDSGSGICKTGDCGGLLRCKRFGRPPTTLAEFSLNQYGKDYIDISNIKGFNVPMDFSPTTRGCRGVRCAADIVGQCPAKLKAPGGGCNDACTVFQTSEYCCTTGKCGPTEYSRFFKRLCPDAFSYVLDKPTTVTCPGSSNYRVTFCPTA
B1 was tested, and the “Effect on VGSC current, alone” value was “amplified VGSC currents similarly to Aβ1-42”, the “Effect on VGSC current when applied after Aβ1-42” value (listed as thaumatin) was “further amplification of VGSC currents was not observed; also recorded: no further amplification” and the “Effect on VGSC current, alone” value (listed as thaumatin) was “similarly amplified VGSC currents as Aβ1-42”.
